# Laboratory results published in US20240400708A1.
# Where a chain is given by its changes, count along the chain named. Names may count otherwise.
# B1: feline IgG1a mutant ID No. 293: S252Y, S428Y, Q311W, D312P, S434Y (antibody, part only; not given: Variable domains, not shown: another chain or arm of the molecule; small tags and cut ends)
# constant: ASTTAPSVFPLAPSCGTTSGATVALACLVLGYFPEPVTVSWNSGALTSGVHTFPAVLQASGLYSLSSMVTVPSSRWLSDTFTCNVAHPPSNTKVDKTVRKTDHPPGPKPCDCPKCPPPEMLGGPSIFIFPPKPKDTLYISRTPEVTCLVVDLGPDDSDVQITWFVDNTQVYTAKTSPREEQFNSTYRVVSVLPILHWPWLKGKEFKCKVNSKSLPSPIERTISKAKGQPHEPQVYVLPPAQEELSRNKVSVTCLIKSFHPPDIAVEWEITGQPEPENNYRTTPPQLDSDGTYFVYSKLSVDRSHWQRGNTYTCSVYHEALHYHHTQKSLTQSPGK
# B2: feline IgG1a mutant ID No. 343: S252Y, S428M, S434F, D399M (antibody, part only; not given: Variable domains, not shown: another chain or arm of the molecule; small tags and cut ends)
# constant: B1 constant with W197Q, P198D, D287M, Y316M, Y322F
# B3: feline IgG1a mutant ID No. 349: S252Y, S428M, S434F, Q311K (antibody, part only; not given: variable domains and light chain, not shown: another chain or arm of the molecule)
# constant: B1 constant with W197K, P198D, Y316M, Y322F
# B4: feline IgG1a mutant ID No. 345: S252Y, S428M, S434F, E430I (antibody, part only; not given: Variable domains, not shown: another chain or arm of the molecule)
# constant: B1 constant with W197Q, P198D, Y316M, E318I, Y322F
# B5: feline IgG1a mutant ID No. 338: S252Y, S428M, S434F, D399T (antibody, part only; not given: variable domains and light chain, not shown: another chain or arm of the molecule)
# constant: B1 constant with W197Q, P198D, D287T, Y316M, Y322F
# B6: feline IgG1a mutant ID No. 295: S252Y, S428Y, Q311W, L314K, S434Y (antibody, part only; not given: Variable domains, not shown: another chain or arm of the molecule; small tags and cut ends)
# constant: B1 constant with P198D, L200K
# B7: feline IgG1a mutant ID No. 337: S252Y, S428M, S434F, D312H (antibody, part only; not given: Variable domains, not shown: another chain or arm of the molecule)
# constant: B1 constant with W197Q, P198H, Y316M, Y322F
# B8: feline IgG1a mutant ID No. 308: P247V, S252H (antibody, part only; not given: Variable domains, not shown: another chain or arm of the molecule; small tags and cut ends)
# constant: B1 constant with P133V, Y138H, W197Q, P198D, Y316S, Y322S
# B9: feline IgG1a mutant ID No. 332: S428Y, D312P, S434Y, Q311R, L314K (antibody, part only; not given: Variable domains, not shown: another chain or arm of the molecule; small tags and cut ends)
# constant: B1 constant with Y138S, W197R, L200K
# B10: feline IgG1a mutant ID No. 352: S252Y, S428M, S434F, Q311Y (antibody, part only; not given: Variable domains, not shown: another chain or arm of the molecule)
# constant: B1 constant with W197Y, P198D, Y316M, Y322F
# B11: feline IgG1a mutant ID No. 328: S428Y, D312P, S434Y, P247V, T250Q, S252H (antibody, part only; not given: Variable domains, not shown: another chain or arm of the molecule; small tags and cut ends)
# constant: B1 constant with P133V, T136Q, Y138H, W197Q
# B12: feline IgG1a mutant ID No. 340: S252Y, S428M, S434F, Q311R (antibody, part only; not given: Variable domains, not shown: another chain or arm of the molecule)
# constant: B1 constant with W197R, P198D, Y316M, Y322F
# B13: feline IgG1a mutant ID No. 288: S252Y, S428Y, D312P, S434Y (antibody, part only; not given: Variable domains, not shown: another chain or arm of the molecule)
# constant: B1 constant with W197Q
# B14: feline IgG1a mutant ID No. 348: S252Y, S428M, S434F, Q311H (antibody, part only; not given: Variable domains, not shown: another chain or arm of the molecule)
# constant: B1 constant with W197H, P198D, Y316M, Y322F
# B15: feline IgG1a mutant ID No. 297: S428Y, D312P, L314K, S434Y (antibody, part only; not given: Variable domains, not shown: another chain or arm of the molecule)
# constant: B1 constant with Y138S, W197Q, L200K
# B16: feline IgG1a mutant ID No. 294: S252Y, S428Y, Q311W, L314K (antibody, part only; not given: variable domains and light chain, not shown: another chain or arm of the molecule; small tags and cut ends)
# constant: B1 constant with P198D, L200K, Y322S
# B17: feline IgG1a mutant ID No. 326: S428Y, D312P, S434Y, P247V, S252H (antibody, part only; not given: Variable domains, not shown: another chain or arm of the molecule; small tags and cut ends)
# constant: B1 constant with P133V, Y138H, W197Q
# B18: feline IgG1a mutant ID No. 331: S428Y, D312P, S434Y, Q311M, L314K (antibody, part only; not given: Variable domains, not shown: another chain or arm of the molecule; small tags and cut ends)
# constant: B1 constant with Y138S, W197M, L200K
# B19: feline IgG1a mutant ID No. 351: S252Y, S428M, S434F, Q311W (antibody, part only; not given: Variable domains, not shown: another chain or arm of the molecule)
# constant: B1 constant with P198D, Y316M, Y322F
# B20: feline IgG1a mutant ID No. 334: S428Y, D312P, S434Y, T250Q, S252H (antibody, part only; not given: Variable domains, not shown: another chain or arm of the molecule)
# constant: B1 constant with T136Q, Y138H, W197Q
# B21: feline IgG1a mutant ID No. 287: S252Y, S428Y, D312P, L314K, S434Y (antibody, part only; not given: Variable domains, not shown: another chain or arm of the molecule)
# constant: B1 constant with W197Q, L200K
# B22: feline IgG1a mutant ID No. 318: S428M, A431K, S434Y (antibody, part only; not given: Variable domains, not shown: another chain or arm of the molecule)
# constant: B1 constant with Y138S, W197Q, P198D, Y316M, A319K
# B23: feline IgG1a mutant ID No. 327: S428Y, D312P, S434Y, P247V, T250Q (antibody, part only; not given: Variable domains, not shown: another chain or arm of the molecule; small tags and cut ends)
# constant: B1 constant with P133V, T136Q, Y138S, W197Q
# B24: feline IgG1a mutant ID No. 289: S252Y, S428Y, L314K, S434Y (antibody, part only; not given: Variable domains, not shown: another chain or arm of the molecule)
# constant: B1 constant with W197Q, P198D, L200K
# B25: feline IgG1a mutant ID No. 321: S428Y, D312P, S434Y, A431K (antibody, part only; not given: Variable domains, not shown: another chain or arm of the molecule)
# constant: B1 constant with Y138S, W197Q, A319K
# B26: feline IgG1a mutant ID No. 347: S252Y, S428M, S434F, L314K (antibody, part only; not given: variable domains and light chain, not shown: another chain or arm of the molecule)
# constant: B1 constant with W197Q, P198D, L200K, Y316M, Y322F
# B27: feline IgG1a mutant ID No. 355: S252Y, S428M, S434F, T256M (antibody, part only; not given: variable domains and light chain, not shown: another chain or arm of the molecule)
# constant: B1 constant with T142M, W197Q, P198D, Y316M, Y322F
# Target: feline FcRn complex (FcRn-α subunit and β-microglobulin) (feline)
# Experiment: SPR (Biacore), FcRn on SA chip, pH 7.4
row,Kd [nM],Binder
1,2930,B1
2,10.9,B2
3,4.78,B3
4,11.5,B4
5,13.8,B5
6,201,B6
7,8.96,B7
8,17.9,B8
9,28.6,B9
10,6.48,B10
11,8.68,B11
12,3.3,B12
13,3.22,B13
14,10.8,B14
15,82.9,B15
16,12.8,B16
17,13.7,B17
18,14.6,B18
19,3.35,B19
20,19.9,B20
21,127,B21
22,25.3,B22
23,27.4,B23
24,132,B24
25,10.2,B25
26,10.5,B26
27,15.7,B27

# Target: feline FcRn complex (FcRn-α subunit and β-microglobulin) (feline)
# Experiment: SPR (Biacore), FcRn on SA chip, pH 6
row,Kd [nM],Binder
1,1.07,B1
2,0.041,B2
3,0.0192,B3
4,0.0227,B4
5,0.0272,B5
6,0.675,B6
7,0.0272,B7
8,5.61,B8
9,0.332,B9
10,0.0271,B10
11,0.0418,B11
12,0.025,B12
13,0.0268,B13
14,0.00949,B14
15,0.898,B15
16,0.692,B16
17,0.0627,B17
18,0.259,B18
19,0.011,B19
20,0.182,B20
21,0.633,B21
22,0.135,B22
23,0.221,B23
24,0.808,B24
25,0.0539,B25
26,0.0567,B26
27,0.0964,B27
